Test results reported in paper PMC7801617 (2021).
No end group written: not given here.

T1: talin-1 R7–R8 fragment, wildtype (residues 1355–1652) (mouse, UniProt P26039 1355-1652)
T1 chain: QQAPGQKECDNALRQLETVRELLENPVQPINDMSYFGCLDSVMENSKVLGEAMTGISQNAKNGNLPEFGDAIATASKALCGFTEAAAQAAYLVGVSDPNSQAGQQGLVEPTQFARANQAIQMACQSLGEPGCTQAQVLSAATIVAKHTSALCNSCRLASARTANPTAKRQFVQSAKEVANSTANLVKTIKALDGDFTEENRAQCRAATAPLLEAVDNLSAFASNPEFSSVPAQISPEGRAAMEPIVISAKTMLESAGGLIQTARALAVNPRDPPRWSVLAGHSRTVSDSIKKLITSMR


Columns and labels:
Experiment in all cases: FP
[1] = target: talin-1 R7–R8 fragment (residues 1355–1652) with mutation R1368W (mouse, UniProt P26039 1355-1652, R1368W)
[2] = target: talin-1 R7–R8 fragment (residues 1355–1652) with mutation Y1389C (mouse, UniProt P26039 1355-1652, Y1389C)
[3] = target: T1, talin-1 R7–R8 fragment, wildtype …

Sequence of talin-1 R7–R8 fragment (residues 1355–1652) with mutation Y1389C (P26039 1355-1652 Y1389C): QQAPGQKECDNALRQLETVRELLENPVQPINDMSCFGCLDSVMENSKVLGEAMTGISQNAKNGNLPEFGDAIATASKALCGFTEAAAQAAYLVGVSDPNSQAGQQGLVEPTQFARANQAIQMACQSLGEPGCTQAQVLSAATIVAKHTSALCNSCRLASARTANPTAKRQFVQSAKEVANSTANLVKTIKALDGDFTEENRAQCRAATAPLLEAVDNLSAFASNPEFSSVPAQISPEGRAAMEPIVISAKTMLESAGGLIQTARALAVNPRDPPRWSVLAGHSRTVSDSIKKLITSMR
Sequence of talin-1 R7–R8 fragment (residues 1355–1652) with mutation R1368W (P26039 1355-1652 R1368W): as the sequence (P26039 1355-1652 Y1389C) above, with R14W, C35Y counted along it

Binder | Kd [1] | Kd [2] | Kd [3]
PYFVETPYGFQLDLDFVKYVDDIQKGNTIKKLNIQKRRKC (BODIPY or Fluorescein dye coupled via the C-terminal cysteine residue) [KANK1 (30–68) peptide] | 390 nM | 350 nM | 350 nM
SEDIDQMFSTLLGEMDLLTQSLGVDTC (also: BODIPY or Fluorescein dye coupled via C-terminal Cys) [RIAM (4–30) peptide] | 3300 nM | 3600 nM | 3600 nM
